The values below come from article doi:10.1101/2021.10.11.464003.

First the molecules themselves.
B1: 5'OH-gRNA:tRNA duplex (dsRNA)
RNA 1: CGAGGUAGUAGGUUGUAU
RNA 2: AAACGACGGCCAGUGCCAAGCUUACUAUACAACCUACUACCUCGU
modifications: guide 5'OH
B2: 5'P-gDNA:tRNA duplex (DNA:RNA)
DNA: CGAGGTAGTAGGTTGTAT
RNA: AAACGACGGCCAGUGCCAAGCUUACUAUACAACCUACUACCUCGU
modifications: guide 5' phosphate
B3: 5'OH-gDNA:tRNA duplex (DNA:RNA)
DNA: CGAGGTAGTAGGTTGTAT
RNA: AAACGACGGCCAGUGCCAAGCUUACUAUACAACCUACUACCUCGU
modifications: guide 5'OH
B4: 5'P-gRNA:tRNA duplex (dsRNA)
RNA 1: CGAGGUAGUAGGUUGUAU
RNA 2: AAACGACGGCCAGUGCCAAGCUUACUAUACAACCUACUACCUCGU
modifications: guide 5' phosphate
B5: 5'OH-gDNA:tDNA duplex (dsDNA)
DNA 1: CGAGGTAGTAGGTTGTAT
DNA 2: AAACGACGGCCAGTGCCAAGCTTACTATACAACCTACTACCTCGT
modifications: guide 5'OH
B6: 5'P-gRNA:tDNA duplex (DNA:RNA)
RNA: CGAGGUAGUAGGUUGUAU
DNA: AAACGACGGCCAGTGCCAAGCTTACTATACAACCTACTACCTCGT
modifications: guide 5' phosphate
B7: 5'OH-gRNA:tDNA duplex (DNA:RNA)
RNA: CGAGGUAGUAGGUUGUAU
DNA: AAACGACGGCCAGTGCCAAGCTTACTATACAACCTACTACCTCGT
modifications: guide 5'OH
B8: 5'P-gDNA:tDNA duplex (dsDNA)
DNA 1: CGAGGTAGTAGGTTGTAT
DNA 2: AAACGACGGCCAGTGCCAAGCTTACTATACAACCTACTACCTCGT
modifications: guide 5' phosphate

The target in this series is T1, MhAgo_DM (Marinitoga hydrogenitolerans, UniProt A0A1M5A5Z8 1-640, D445A;D515A).
T1 sequence: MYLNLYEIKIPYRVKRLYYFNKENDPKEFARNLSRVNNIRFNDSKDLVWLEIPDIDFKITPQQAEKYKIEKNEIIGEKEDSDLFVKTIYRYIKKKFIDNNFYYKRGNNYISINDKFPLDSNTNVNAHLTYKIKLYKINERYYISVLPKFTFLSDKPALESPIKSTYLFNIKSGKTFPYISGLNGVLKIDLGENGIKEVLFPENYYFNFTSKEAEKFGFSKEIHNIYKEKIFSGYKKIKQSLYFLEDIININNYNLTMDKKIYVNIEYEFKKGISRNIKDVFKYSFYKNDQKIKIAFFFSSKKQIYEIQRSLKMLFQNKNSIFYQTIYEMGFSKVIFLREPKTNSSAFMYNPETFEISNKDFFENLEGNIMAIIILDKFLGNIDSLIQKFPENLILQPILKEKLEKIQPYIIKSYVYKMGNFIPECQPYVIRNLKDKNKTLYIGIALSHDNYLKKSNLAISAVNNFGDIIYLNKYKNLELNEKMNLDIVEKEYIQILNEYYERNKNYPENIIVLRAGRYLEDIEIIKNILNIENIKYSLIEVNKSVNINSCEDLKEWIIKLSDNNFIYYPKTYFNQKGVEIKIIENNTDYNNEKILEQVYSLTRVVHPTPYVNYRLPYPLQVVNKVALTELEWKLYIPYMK
Description: EMSA. A general note: In EMSA bound probe runs differently from free probe, usually more slowly.
As usually defined, the Kd is the equilibrium constant for the complex coming apart. In turn, B1 had a Kd of 125 ± 6.83 nM.

With B2, binding was characterised by a dissociation constant (Kd) of 140 ± 5.37 nM.

Molecule B3 returned a Kd of 102 ± 1.69 nM. The value for B4 was 232 ± 5.07 nM; that for B5 was 119 ± 4.8 nM. For the molecule B6, the Kd worked out at 148 ± 4.52 nM.

As to B7, the Kd came out at 121 ± 4.66 nM. The value for B8 was 145 ± 11.5 nM.
